Here are results for 5 molecules from patent US20130345145A1, “ATIP3 AND BIOLOGICALLY ACTIVE FRAGMENTS THEREOF FOR USE IN THE TREATMENT OF CANCER” (INSTITUT NATIONAL DE LA SANTE ET DE LA RECHERCHE MEDICALE …, priority 2011, published 2013).

For assay [1], the system named is human breast cancer MCF-7 cells. Put plainly: Clonogenicity experiments. In kind it is cell-based. As to conditions: for inhibitory effect on colony number relative to that of GFP-ATIP3: MCF7, FIG. 12; for cell proliferation / number of G418-resistant colonies: MCF-7 transfected with GFP fusion, G418 selection 3 weeks, compared to GFP. On the procedure:
For clonogenicity experiments, human breast cancer MCF-7 cells were transfected for 24 h with […] pEGFP-C1 vector or 2 μg of pEGFP-ATIP3BD cDNA. Similar transfection efficiency (50%) was assessed by FACS analysis and cell viability was verified using trypan blue. Cells were then plated at various dilutions in 12 well plates and transfectants were selected by adding geneticin (G418, 1 mg/ml, Gibco) in fresh medium twice a week for 3 weeks. Resistant colonies were stained with 0.5% crystal violet (Sigma) and counted.
The ability of human MCF7 breast cancer cells to form colonies following expression of minimal domains D2N and D2C was analyzed by clonogenicity experiments as described before (see example 2).

Assay [2] relates to microtubule cytoskeleton. Description: Immunofluorescence intracellular localization in RPE1 cells. In kind it is cell-based, Human. The note with it: RPE1 cells transfected 24 hrs, data not shown. Here is the method: Immunofluorescence study was performed as example 2. Briefly, Human retinal pigment epithelial (RPE1) cells were transfected for 24 hrs with GFP-D2N, GFP-D2C or GFP-D2CC constructs prior to fixation in ice-cold methanol and incubation with anti-GFP antibodies as described (page 21, lines 1-9).

The subject of assay [3] is microtubule cytoskeleton. Put plainly: Immunofluorescence localization in transfected MCF-7 cells. In kind it is cell-based, human. The note with it: MCF-7 cells transiently transfected 24 h, data not shown. On the procedure:
(§1) The pEGFP-ATIP3BD plasmid was transiently transfected into human breast cancer MCF-7 cells. Localization of GFP-ATIP3BD fusion protein at the microtubule cytoskeleton was examined by immunofluorescence, and its ability to interact with stabilized microtubules was determined by co-sedimentation assay.
Exponentially growing human breast cancer MCF-7 cells plated on coverslips were transiently transfected (24 h) with pEGFP-ATIP3BD plasmid, and fixed in ice-cold methanol for 5 min prior to incubation for 1 h at room temperature with primary antibodies: anti-GFP monoclonal antibodies (Roche, diluted 1:200) and human anti-alpha-tubulin antibodies clone F2C (diluted 1:10), as described in Rodrigues-Ferreira et al. (PLoS One. 2009; 4(10):e7239 2009). After extensive washing, cells were incubated for 30 min at room temperature with appropriate secondary Cy-2-conjugated anti-human and/or Cy-3-conjugated anti-mouse antibodies (Jackson Laboratories, Interchim, France) diluted 1:500. Coverslips were mounted on glass slides using Glycergel Mounting Medium (DakoCytomation) and examined with a Leica TCS SP2 AOBS confocal microscope using appropriate filters. Image analysis was performed with NIH ImageJ software.

Assay [4] concerns stabilized microtubules. Put plainly: Microtubule co-sedimentation assay. The note with it: MCF-7 lysate, taxol 20 μM, data not shown. Type of assay: binding, human. Here is the method:
as §1
For microtubule cosedimentation assay, human breast cancer MCF-7 cells were transiently transfected (24 h) with pEGFP-ATIP3BD plasmid and incubated for 20 min at 4° C. in PEM buffer (100 mM PIPES, pH 6.9, 1 mM MgSO4, 1 mM EGTA), scraped and sonicated prior to centrifugation at 15000 rpm for 10 min, 4° C. Clarified samples were incubated with taxol (20 μM) in the presence of GTP (1 mM) and DTT (1 mM) for 45 min at 37° C. and were spun at 70 000 g for 30 min at 30° C. through a cushion buffer containing 40% glycerol, 20 μM taxol and 1 mM GTP. The supernatant (S) and pellet (P) fractions were collected separately and subsequently immunoblotted with anti-GFP (Roche) and anti-alpha-tubulin (Sigma) antibodies.

B1: D2C: domain of ATIP3BD, amino-acid positions 705-874 of SEQ ID NO: 1, expressed as GFP fusion (protein, listed as Homo sapiens)
chain: TTSGRNISKPDSCGLRQIAAPKAKVGPPVSCLRRNSDNRNPSADRAVSPQRIRRVSSSGKPTSLKTAQSSWVNLPRPLPKSKASLKSPALRRTGSTPSIASTHSELSTYSNNSGNAAVIKYEEKPPKPAFQNGSSGSFYLKPLVSRAHVHLMKTPPKGPSRKNLFTALNA
modifications: GFP fusion; (1)..(409) acidic N-terminal region
As to B1, in assay [1], the “inhibitory effect on colony number relative to that of GFP-ATIP3” value was 78% and the “cell proliferation / number of G418-resistant colonies” value (shortened to “cell proliferation / number”) is on record as “strongly reduces the number of G418-resistant colonies”. For the same molecule, the intracellular localization entry in assay [2] was “associate with the microtubule cytoskeleton”.

B2: ATIP3a: microtubule-associated tumor suppressor 1 isoform 1, SEQ ID NO: 1 (protein, listed as Homo sapiens)
chain: MTDDNSDDKIEDELQTFFTSDKDGNTHAYNPKSPPTQNSSASSVNWNSANPDDMVVDYETDPAVVTGENISLSLQGVEVFGHEKSSSDFISKQVLDMHKDSICQCPALVGTEKPKYLQHSCHSLEAVEGQSVEPSLPFVWKPNDNLNCAGYCDALELNQTFDMTVDKVNCTFISHHAIGKSQSFHTAGSLPPTGRRSGSTSSLSYSTWTSSHSDKTHARETTYDRESFENPQVTPSEAQDMTYTAFSDVVMQSEVFVSDIGNQCACSSGKVTSEYTDGSQQRLVGEKETQALTPVSDGMEVPNDSALQEFFCLSHDESNSEPHSQSSYRHKEMGQNLRETVSYCLIDDECPLMVPAFDKSEAQVLNPEHKVTETEDTQMVSKGKDLGTQNHTSELILSSPPGQKVGSSFGLTWDANDMVISTDKTMCMSTPVLEPTKVTFSVSPIEATEKCKKVEKGNRGLKNIPDSKEAPVNLCKPSLGKSTIKTNTPIGCKVRKTEIISYPRPNFKNVKAKVMSRAVLQPKDAALSKVTPRPQQTSASSPSSVNSRQQTVLSRTPRSDLNADKKAEILINKTHKQQFNKLITSQAVHVTTHSKNASHRVPRTTSAVKSNQEDVDKASSSNSACETGSVSALFQKIKGILPVKMESAECLEMTYVPNIDRISPEKKGEKENGTSMEKQELKQEIMNETFEYGSLFLGSASKTTTTSGRNISKPDSCGLRQIAAPKAKVGPPVSCLRRNSDNRNPSADRAVSPQRIRRVSSSGKPTSLKTAQSSWVNLPRPLPKSKASLKSPALRRTGSTPSIASTHSELSTYSNNSGNAAVIKYEEKPPKPAFQNGSSGSFYLKPLVSRAHVHLMKTPPKGPSRKNLFTALNAVEKSRQKNPRSLCIQPQTAPDALPPEKTLELTQYKTKCENQSGFILQLKQLLACGNTKFEALTVVIQHLLSEREEALKQHKTLSQELVNLRGELVTASTTCEKLEKARNELQTVYEAFVQQHQAEKTERENRLKEFYTREYEKLRDTYIEEAEKYKMQLQEQFDNLNAAHETSKLEIEASHSEKLELLKKAYEASLSEIKKGHEIEKKSLEDLLSEKQESLEKQINDLKSENDALNEKLKSEEQKRRAREKANLKNPQIMYLEQELESLKAVLEIKNEKLHQQDIKLMKMEKLVDNNTALVDKLKRFQQENEELKARMDKHMAISRQLSTEQAVLQESLEKESKVNKRLSMENEELLWKLHNGDLCSPKRSPTSSAIPLQSPRNSGSFPSPSISPR
modifications: (1)..(409) acidic N-terminal region
As for B2, the “cell proliferation / number” value in assay [1] is “inhibit cell proliferation and reduce cancer cell growth”.

B3: D2N: domain of ATIP3BD, amino-acid positions 410-634 of SEQ ID NO: 1, expressed as GFP fusion (protein, listed as Homo sapiens)
chain: GLTWDANDMVISTDKTMCMSTPVLEPTKVTFSVSPIEATEKCKKVEKGNRGLKNIPDSKEAPVNLCKPSLGKSTIKTNTPIGCKVRKTEIISYPRPNFKNVKAKVMSRAVLQPKDAALSKVTPRPQQTSASSPSSVNSRQQTVLSRTPRSDLNADKKAEILINKTHKQQFNKLITSQAVHVTTHSKNASHRVPRTTSAVKSNQEDVDKASSSNSACETGSVSALF
modifications: GFP fusion; (1)..(409) acidic N-terminal region
Regarding B3, in assay [1], the “inhibitory effect on colony number relative to that of GFP-ATIP3” value is 71% and the “cell proliferation / number” value was “strongly reduces the number of G418-resistant colonies”. In addition, the intracellular localization result in assay [2] is “associate with the microtubule cytoskeleton”.

B4: ATIP3b: microtubule-associated tumor suppressor 1 isoform 2, SEQ ID NO: 6 (protein, listed as Homo sapiens)
chain: MTDDNSDDKIEDELQTFFTSDKDGNTHAYNPKSPPTQNSSASSVNWNSANPDDMVVDYETDPAVVTGENISLSLQGVEVFGHEKSSSDFISKQVLDMHKDSICQCPALVGTEKPKYLQHSCHSLEAVEGQSVEPSLPFVWKPNDNLNCAGYCDALELNQTFDMTVDKVNCTFISHHAIGKSQSFHTAGSLPPTGRRSGSTSSLSYSTWTSSHSDKTHARETTYDRESFENPQVTPSEAQDMTYTAFSDVVMQSEVFVSDIGNQCACSSGKVTSEYTDGSQQRLVGEKETQALTPVSDGMEVPNDSALQEFFCLSHDESNSEPHSQSSYRHKEMGQNLRETVSYCLIDDECPLMVPAFDKSEAQVLNPEHKVTETEDTQMVSKGKDLGTQNHTSELILSSPPGQKVGSSFGLTWDANDMVISTDKTMCMSTPVLEPTKVTFSVSPIEATEKCKKVEKGNRGLKNIPDSKEAPVNLCKPSLGKSTIKTNTPIGCKVRKTEIISYPRPNFKNVKAKVMSRAVLQPKDAALSKVTPRPQQTSASSPSSVNSRQQTVLSRTPRSDLNADKKAEILINKTHKQQFNKLITSQAVHVTTHSKNASHRVPRTTSAVKSNQEDVDKASSSNSACETGSVSALFQKIKGILPVKMESAECLEMTYVPNIDRISPEKKGEKENGTSMEKQELKQEIMNETFEYGSLFLGSASKTTTTSGRNISKPDSCGLRQIAAPKAKVGPPVSCLRRNSDNRNPSADRAVSPQRIRRVSSSAGNAAVIKYEEKPPKPAFQNGSSGSFYLKPLVSRAHVHLMKTPPKGPSRKNLFTALNAVEKSRQKNPRSLCIQPQTAPDALPPEKTLELTQYKTKCENQSGFILQLKQLLACGNTKFEALTVVIQHLLSEREEALKQHKTLSQELVNLRGELVTASTTCEKLEKARNELQTVYEAFVQQHQAEKTERENRLKEFYTREYEKLRDTYIEEAEKYKMQLQEQFDNLNAAHETSKLEIEASHSEKLELLKKAYEASLSEIKKGHEIEKKSLEDLLSEKQESLEKQINDLKSENDALNEKLKSEEQKRRAREKANLKNPQIMYLEQELESLKAVLEIKNEKLHQQDIKLMKMEKLVDNNTALVDKLKRFQQENEELKARMDKHMAISRQLSTEQAVLQESLEKESKVNKRLSMENEELLWKLHNGDLCSPKRSPTSSAIPLQSPRNSGSFPSPSISPR
modifications: (1)..(409) acidic N-terminal region
On to B4, for which the “cell proliferation / number” value in assay [1] is “inhibit cell proliferation and reduce cancer cell growth”.

B5: ATIP3BD: basic central domain of ATIP3, residues 410-874 of SEQ ID NO: 1, expressed as GFP fusion (protein, listed as Homo sapiens)
chain: GLTWDANDMVISTDKTMCMSTPVLEPTKVTFSVSPIEATEKCKKVEKGNRGLKNIPDSKEAPVNLCKPSLGKSTIKTNTPIGCKVRKTEIISYPRPNFKNVKAKVMSRAVLQPKDAALSKVTPRPQQTSASSPSSVNSRQQTVLSRTPRSDLNADKKAEILINKTHKQQFNKLITSQAVHVTTHSKNASHRVPRTTSAVKSNQEDVDKASSSNSACETGSVSALFQKIKGILPVKMESAECLEMTYVPNIDRISPEKKGEKENGTSMEKQELKQEIMNETFEYGSLFLGSASKTTTTSGRNISKPDSCGLRQIAAPKAKVGPPVSCLRRNSDNRNPSADRAVSPQRIRRVSSSGKPTSLKTAQSSWVNLPRPLPKSKASLKSPALRRTGSTPSIASTHSELSTYSNNSGNAAVIKYEEKPPKPAFQNGSSGSFYLKPLVSRAHVHLMKTPPKGPSRKNLFTALNA
modifications: GFP fusion; (1)..(409) acidic N-terminal region
For the molecule B5, the “localization of GFP fusion protein at the microtubule cytoskeleton” value in assay [3] is reported as “localizes at the microtubule cytoskeleton”. Moreover, in assay [4], the “co-sedimentation with stabilized microtubules” value is “co-sediments with stabilized microtubules”. Moreover, in assay [1], the “cell proliferation / number” value is “mimic the inhibitory effects of the entire ATIP3a and ATIP3b proteins”.
